Reference: patent WO2018224439A1 (dated 2018)

Key:
[1] = biological target: T1, cynomolgus serum albumin (cynomolgus, UniProt A2V9Z4 25-608); assay: SPR; sc02 against sc01; this end fits cynomolgus SA pH 5.5 in Table 3
T1 construct: also called cynomolgus SA

[2] = biological target: T2, human serum albumin (human, UniProt P02768 25-609); assay: SPR; sc02 against sc01; this end fits human SA pH 5.5 in Table 3
T2 construct: Coupled by amine chemistry to the SPR chip; also called HSA; human SA

[3] = biological target: T2, human serum albumin; assay: SPR; sc02 against sc01

B1: 19-01-H04-sc02 (scFv, V domains shown)
VH: EVQLVESGGGLVQPGGSLRLSCAASGFSLSSNAMGWVRQAPGKGLEYIGIISVGGFTYYASWAKGRFTISRDNSKNTVYLQMNSLRAEDTATYFCARDRHGGDSSGAFYLWGQGTLVTVSS
VL: DIQMTQSPSSLSASVGDRVTITCQSSESVYSNNQLSWYQQKPGQPPKLLIYDASDLASGVPSRFSGSGSGTDFTLTISSLQPEDFATYYCAGGFSSSSDTAFGGGTKLTVLG
notes: Humanized scFv (STR graft); also called 19-01-H04-sc02 STR; 19-01-H04-SC02 STR
B1 was tested, and the “fold improvement of affinity (STR graft over CDR graft)” value (“fold improvement of affinity” below) [1] was 20 to 300 fold and the “fold improvement of affinity” value [2] was 20 to 300 fold.

B2: 23-13-A01-sc02 (scFv, V domains shown)
VH: EVQLVESGGGLVQPGGSLRLSCAASGFSFSSSYWICWVRQAPGKGLEWVGCVFTGDGTTYYASWAKGRFTISRDNSKNTVYLQMNSLRAEDTATYFCARPVSVYYYGMDLWGQGTLVTVSS
VL: DVVMTQSPSSLSASVGDRVTITCQASQIISSRSAWYQQKPGQPPKLLIYQASKLASGVPSRFSGSGSGTDFTLTISSLQPEDFATYYCQCTYIDSNFGAFGGGTKLTVLG
notes: Humanized scFv (STR graft); also called 23-13-A01-sc02 STR; 23-13-A01-SC02 STR
With B2 the “fold improvement of affinity” value [3] was about 3 fold.
